Here are results for 10 molecules from US20140271457A1 (AbbVie / Abbott, published 2014).

The assay addresses Recombinant Human TNF-α/TNFSF1A (human, UniProt P01375 77-233). The experiment in a line: cell-based or functional assay.

Recombinant Human TNF-α/TNFSF1A, sequence (P01375 77-233 limits assumed): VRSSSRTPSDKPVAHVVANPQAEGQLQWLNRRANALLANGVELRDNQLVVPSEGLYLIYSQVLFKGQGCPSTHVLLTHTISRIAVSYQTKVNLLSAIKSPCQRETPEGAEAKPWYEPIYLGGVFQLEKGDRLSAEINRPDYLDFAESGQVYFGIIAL

B1: DVD3267 (bispecific antibody, IgG1)
VH: EVQLVESGGGLVQPGGSLRLSCAASGFSFSKYWLGWVRQAPGKGLEWVSDIYPGYDYTHYNEKFKDRFTISADTSKNTAYLQMNSLRAEDTAVYYCARSDGSSTYWGQGTLVTVSSASTKGPSVFPLAPEVQLQQSGPELVTPGASVKISCKASGYTFTKYWLGWVKQSHGKSLEWIGDIYPGYDYTHYNEKFKDTATLTVDKSSSIAYMEIRGLTSEDSAVYYCARSDGSSTYWGQGTLVTVSA
VL: DIQMTQSPSSLSASVGDRVTITCTSSQNIVHSNGNTYLEWYQQKPGKAPKLLIYKVSNRFSGVPSRFSGSGSGTDFTLTISSLQPEDFATYYCFQVSHVPYTFGQGTKVEIKRTVAAPDVQMIQSPSSLSASLGDIVTMTCTSSQNIVHSNGNTYLEWFQQKPGKAPKLLIYKVSNRFSGVPSRFSGSRYGTDFTLTISSLEDEDLATYFCFQVSHVPYTFGGGTKLEIKR
With B1, the “N-Terminal VD huTNFα Neutralization Assay IC50” value turned out to be 2 pM.

B2: DVD3263 (bispecific antibody, IgG1)
VH: EVQLVESGGGLVQPGGSLRLSCAASGFTFSNYGVTWVRQAPGKGLEWVSMIWADGSTHYASSVKGRFTISRDNSKNTLYLQMNSLRAEDTAVYYCAREWQHGPVAYWGQGTLVTVSSGGGGSGGGGSEVQLQQSGPELVTPGASVKISCKASGYTFTKYWLGWVKQSHGKSLEWIGDIYPGYDYTHYNEKFKDTATLTVDKSSSIAYMEIRGLTSEDSAVYYCARSDGSSTYWGQGTLVTVSA
VL: DIQMTQSPSSLSASVGDRVTITCRASQLVSSAVAWYQQKPGKAPKLLIYWASARHTGVPSRFSGSGSGTDFTLTISSLQPEDFATYYCQQHYKTPFTFGQGTKLEIKRGGSGGGGSGDVQMIQSPSSLSASLGDIVTMTCTSSQNIVHSNGNTYLEWFQQKPGKAPKLLIYKVSNRFSGVPSRFSGSRYGTDFTLTISSLEDEDLATYFCFQVSHVPYTFGGGTKLEIKR
As to B2, the “N-Terminal VD huTNFα Neutralization Assay IC50” value turned out to be 8 pM.

B3: DVD3264 (bispecific antibody, IgG1)
VH: EVQLVESGGGLVQPGGSLRLSCAASGFTFSNYGVTWVRQAPGKGLEWVSMIWADGSTHYASSVKGRFTISRDNSKNTLYLQMNSLRAEDTAVYYCAREWQHGPVAYWGQGTLVTVSSASTKGPEVQLQQSGPELVTPGASVKISCKASGYTFTKYWLGWVKQSHGKSLEWIGDIYPGYDYTHYNEKFKDTATLTVDKSSSIAYMEIRGLTSEDSAVYYCARSDGSSTYWGQGTLVTVSA
VL: DIQMTQSPSSLSASVGDRVTITCRASQLVSSAVAWYQQKPGKAPKLLIYWASARHTGVPSRFSGSGSGTDFTLTISSLQPEDFATYYCQQHYKTPFTFGQGTKLEIKRTVAAPDVQMIQSPSSLSASLGDIVTMTCTSSQNIVHSNGNTYLEWFQQKPGKAPKLLIYKVSNRFSGVPSRFSGSRYGTDFTLTISSLEDEDLATYFCFQVSHVPYTFGGGTKLEIKR
Turning to B3, the “N-Terminal VD huTNFα Neutralization Assay IC50” value came out at 6 pM.

B4: DVD3044 (bispecific antibody, IgG1)
VH: EVQLVESGGGLVQPGGSLRLSCAASGFSLTNNNVNWVRQAPGKGLEWVGGVWAGGATDYNSALKSRFTISRDNSKNTAYLQMNSLRAEDTAVYYCARDGGYSSSTLYAMDAWGQGTLVTVSSASTKGPEVQLVQSGAEVKKPGASVKVSCKASGYTFNNYGIIWVRQAPGQGLEWMGWINTYTGKPTYAQKFQGRVTMTTDTSTSTAYMELSSLRSEDTAVYYCARKLFNTVAVTDNAMDYWGQGTTVTVSS
VL: DIQMTQSPSSLSASVGDRVTITCRASEDIYNALAWYQQKPGKAPKLLIYNTDTLHTGVPSRFSGSGSGTDYTLTISSLQPEDFATYFCQHYFHYPRTFGQGTKVEIKRTVAAPDIQMTQSPSSLSASVGDRVTITCRASQDIENYLNWYQQKPGKAPKLLIYYTSRLQSGVPSRFSGSGSGTDFTLTISSLQPEDFATYFCQQGNTQPPTFGQGTKLEIKR
Consider B4, for which the “C-Terminal VD huTNFα Neutralization Assay IC50” value turned out to be 673 pM.

B5: DVD3043 (bispecific antibody, IgG1)
VH: EVQLVESGGGLVQPGGSLRLSCAASGFSLTNNNVNWVRQAPGKGLEWVGGVWAGGATDYNSALKSRFTISRDNSKNTAYLQMNSLRAEDTAVYYCARDGGYSSSTLYAMDAWGQGTLVTVSSGGGGSGGGGSEVQLVQSGAEVKKPGASVKVSCKASGYTFNNYGIIWVRQAPGQGLEWMGWINTYTGKPTYAQKFQGRVTMTTDTSTSTAYMELSSLRSEDTAVYYCARKLFNTVAVTDNAMDYWGQGTTVTVSS
VL: DIQMTQSPSSLSASVGDRVTITCRASEDIYNALAWYQQKPGKAPKLLIYNTDTLHTGVPSRFSGSGSGTDYTLTISSLQPEDFATYFCQHYFHYPRTFGQGTKVEIKRGGSGGGGSGDIQMTQSPSSLSASVGDRVTITCRASQDIENYLNWYQQKPGKAPKLLIYYTSRLQSGVPSRFSGSGSGTDFTLTISSLQPEDFATYFCQQGNTQPPTFGQGTKLEIKR
As for B5, the “C-Terminal VD huTNFα Neutralization Assay IC50” value was 128 pM.

B6: DVD3283 (bispecific antibody, IgG1)
VH: EVQLVQSGAEVKKPGASVKVSCKASGYTFANYGIIWVRQAPGQGLEWMGWINTYTGKPTYAQKFQGRVTMTTDTSTSTAYMELSSLRSEDTAVYYCARKLFTTMDVTDNAMDYWGQGTTVTVSSGGGGSGGGGSEVQLQQSGPELVTPGASVKISCKASGYTFTKYWLGWVKQSHGKSLEWIGDIYPGYDYTHYNEKFKDTATLTVDKSSSIAYMEIRGLTSEDSAVYYCARSDGSSTYWGQGTLVTVSA
VL: DIQMTQSPSSLSASVGDRVTITCRASQDISQYLNWYQQKPGKAPKLLIYYTSRLQSGVPSRFSGSGSGTDFTLTISSLQPEDFATYFCQQGNTWPPTFGQGTKLEIKRGGSGGGGSGDVQMIQSPSSLSASLGDIVTMTCTSSQNIVHSNGNTYLEWFQQKPGKAPKLLIYKVSNRFSGVPSRFSGSRYGTDFTLTISSLEDEDLATYFCFQVSHVPYTFGGGTKLEIKR
With B6, the “N-Terminal VD huTNFα Neutralization Assay IC50” value stood at 2 pM.

B7: DVD2766 (bispecific antibody, IgG1)
VH: EVQLVESGGGLVQPGGSLRLSCAASGFTFSNYGVEWVRQAPGKGLEWVSGIWADGSTHYADTVKSRFTISRDNSKNTLYLQMNSLRAEDTAVYYCAREWQHGPVAYWGQGTLVTVSSASTKGPEVQLVESGGGLVQPGGSLRLSCAASGFSLTNNNVNWVRQAPGKGLEWVGGVWAGGATDYNSALKSRFTISRDNSKNTAYLQMNSLRAEDTAVYYCARDGGYSSSTLYAMDAWGQGTLVTVSS
VL: DIQMTQSPSSLSASVGDRVTITCKASQLVSSAVAWYQQKPGKAPKLLIYWASTLHTGVPSRFSGSGSGTDFTLTISSLQPEDFATYYCQQHYRTPFTFGQGTKLEIKRTVAAPSVFIFPPDIQMTQSPSSLSASVGDRVTITCRASEDIYNALAWYQQKPGKAPKLLIYNTDTLHTGVPSRFSGSGSGTDYTLTISSLQPEDFATYFCQHYFHYPRTFGQGTKVEIKR
For the molecule B7, the “N-Terminal VD huTNFα Neutralization Assay IC50” value is 10 pM.

B8: DVD3284 (bispecific antibody, IgG1)
VH: EVQLVQSGAEVKKPGASVKVSCKASGYTFANYGIIWVRQAPGQGLEWMGWINTYTGKPTYAQKFQGRVTMTTDTSTSTAYMELSSLRSEDTAVYYCARKLFTTMDVTDNAMDYWGQGTTVTVSSASTKGPEVQLQQSGPELVTPGASVKISCKASGYTFTKYWLGWVKQSHGKSLEWIGDIYPGYDYTHYNEKFKDTATLTVDKSSSIAYMEIRGLTSEDSAVYYCARSDGSSTYWGQGTLVTVSA
VL: DIQMTQSPSSLSASVGDRVTITCRASQDISQYLNWYQQKPGKAPKLLIYYTSRLQSGVPSRFSGSGSGTDFTLTISSLQPEDFATYFCQQGNTWPPTFGQGTKLEIKRTVAAPDVQMIQSPSSLSASLGDIVTMTCTSSQNIVHSNGNTYLEWFQQKPGKAPKLLIYKVSNRFSGVPSRFSGSRYGTDFTLTISSLEDEDLATYFCFQVSHVPYTFGGGTKLEIKR
B8: the “N-Terminal VD huTNFα Neutralization Assay IC50” value worked out at 12 pM.

B9: DVD3286 (bispecific antibody, IgG1)
VH: B8 VH
VL: DIQMTQSPSSLSASVGDRVTITCRASQDISQYLNWYQQKPGKAPKLLIYYTSRLQSGVPSRFSGSGSGTDFTLTISSLQPEDFATYFCQQGNTWPPTFGQGTKLEIKRTVAAPSVFIFPPDVQMIQSPSSLSASLGDIVTMTCTSSQNIVHSNGNTYLEWFQQKPGKAPKLLIYKVSNRFSGVPSRFSGSRYGTDFTLTISSLEDEDLATYFCFQVSHVPYTFGGGTKLEIKR
As to B9, the “N-Terminal VD huTNFα Neutralization Assay IC50” value was found to be 2 pM.

B10: DVD3287 (bispecific antibody)
VH: EVQLVQSGAEVKKPGASVKVSCKASGYTFANYGIIWVRQAPGQGLEWMGWINTYTGKPTYAQKFQGRVTMTTDTSTSTAYMELSSLRSEDTAVYYCARKLFTTMDVTDNAMDYWGQGTTVTVSSASTKGPSVFPLAPEVQLQQSGPELVTPGASVKISCKASGYTFTKYWLGWVKQSHGKSLEWIGDIYPGYDYTHYNEKFKDTATLTVDKSSSIAYMEIRGLTSEDSAVYYCARSDGSSTYWGQGTLVTVSA
VL: B8 VL
Regarding B10, the “N-Terminal VD huTNFα Neutralization Assay IC50” value was 18 pM.
